B1: Tat: conventional immunosuppressive HIV-1 trans-activator of transcription protein, recombinant (SEQ ID NO. 2) (protein)
chain: MEPVDPRLEPWKHPGSQPKTACTTCYCKKCCFHCQVCFTKKALGISYGRKKRRQRRRAPEDSQTHQVSPPKQPAPQFRGDPTGPKESKKKVERETETHPVD
modifications: Human immunodeficiency virus type 1

Legend:
[1] = test system: monocytes committed to the dendritic cell (DC) lineage; assay: Tat induction of CD86 on monocytes committed to the DC lineage (FACScan); format: cell-based, Human; conditions: committed DCs cultured overnight; Tat 50 nM, LPS 100 ng/mL; Control MFI 9
Method: An additional embodiment of the present invention is that Tat induces monocytes committed to the dendritic cell (DC) lineage to enlarge into activated, CD86+DC APCs (FIG. 1). Human monocytes enriched from PBMCs by Percoll density gradient separation and adherance to anti-CD14 coated magnetic beads (Dynabeads M-450, Dynal Biotech) were committed to differentiate into DCs through five days of culture in GM-CSF (100 ng/mL) and IL-4 (100 ng/mL). Committed DCs were cultured overnight either in medium alone (Control), LPS (100 ng/mL), or Tat (50 nM), after which they were stained with an anti-CD86 antibody (BD Pharmingen) and analyzed by FACScan for CD86 induction (left panel) or generalized activation (right panel, enlargement into box R2, shown for Tat-stimulated cells). The MFIs for CD86 expression are 9 (Control), 30 (LPS), and 187 (Tat), CD86 being a specific determinant of DC activation.

[2] = test system: T cells; assay: T cell activation by Tat; format: cell-based; conditions: 50 nM Tat
[3] = test system: Human monocytes; assay: Tat activation of monocytes/macrophages, Fas ligand (FasL) induction by flow cytometry; format: cell-based
Method: Tat activation of monocytes is dose-dependent and saturatable (FIG. 3). Human monocytes were cultured in increasing concentrations of recombinant Tat for six days at which time they were assayed for Fas ligand (FasL) induction as a measure of activation by using flow cytometry (FACScan, Becton Dickinson) to quantitate the intensity of staining (mean fluorescence index (MFI)) with an anti-Fas ligand monoclonal antibody (Nok 1, BD Pharmingen).

[4] = test system: Human PBMCs; format: cell-based
[5] = test system: CD4+T cells; assay: Direct apoptosis of CD4+ T cells by Tat; format: cell-based
[6] = test system: antibody response to p24; assay: Suppression of humoral immune response to HIV-1 p24 in immunized mice (ELISA); format: in vivo; conditions: 5 μg p24 + 5 μg Tat in complete Freund's adjuvant s.c.
Method: Tat suppresses the antigen-specific humoral immune response to HIV-1 p24 (FIG. 4). At week 0, mice (4 in each group) were immunized with 5 μg recombinant p24 protein (Chiron, Emeryville, Calif.) and either 5 μg recombinant Tat protein (PT) or 5 μg recombinant ox-Tat* protein (Ag) mixed in 100 μL complete Freund's adjuvant and administered subcutaneously in the flank. Following immunization, sera were collected every other week for 10 weeks and assayed for a specific antibody response to p24 by commercially available ELISA (Abbott Laboratories, Abbott Park, Ill.). […] This response was maintained for at least 6 weeks. The antibody titers at 6 weeks are approximately ten times greater than at week 2 due to maturation of the immune response.

Molecule	MFI for CD86 expression [1]	T cell activation [2]	concentration of Tat that triggers the effect on the macrophages ([3]; FasL-inducing macrophage effect)	plateau stimulatory concentration for APCs ([3]; six days culture, FasL MFI, higher concentrations did not increase MFI)	proliferation (stimulation index) relative to antigen treatment alone [4]	reversal of Tat suppression, proliferation as % of control ([4]; with further addition of anti-IL-10 and anti-IL-6 antibodies to the cultures)	concentration required to initiate direct apoptosis of CD4+T cells [5]	duration for which suppression of p24 antibody response was maintained [6]	p24 antibody titer at 2 weeks ([6]; compared with ox-Tat* control)
lipopolysaccharide [LPS, reference compound]	30								
B1	187	could not be activated	500 pM	50 nM	141%	> 95 % of control	approximately 500 nM	at least 6 weeks	completely suppressed
